In patent US20180148504A1:

Columns and labels:
[1] = biological target: recombinant purified FRα (ECL assay calibrator) (human) (UniProt P15328); test: ECL sandwich competition; competitors 9F3 capture / 24F12 detection; FRα standard STD01; MORAb-003 50 µg/mL
[2] = biological target: recombinant purified FRα (ECL assay calibrator) (human) (UniProt P15328); test: ECL sandwich competition; competitors 9F3 capture / 24F12 detection; FRα standard STD02; MORAb-003 10 µg/mL
[3] = biological target: recombinant purified FRα (ECL assay calibrator) (human) (UniProt P15328); test: ECL sandwich competition; competitors 9F3 capture / 24F12 detection; FRα standard STD02; MORAb-003 50 µg/mL
[4] = biological target: recombinant purified FRα (ECL assay calibrator) (human) (UniProt P15328); test: ECL sandwich competition; competitors 9F3 capture / 24F12 detection; FRα standard STD03; MORAb-003 50 µg/mL
[5] = biological target: recombinant purified FRα (ECL assay calibrator) (human) (UniProt P15328); test: ECL sandwich competition; competitors 9F3 capture / 24F12 detection; FRα standard STD05; MORAb-003 10 µg/mL
[6] = biological target: recombinant purified FRα (ECL assay calibrator) (human) (UniProt P15328); test: ECL sandwich competition; competitors 9F3 capture / 24F12 detection; FRα standard STD05; MORAb-003 50 µg/mL
[7] = biological target: endogenous folate receptor alpha in human serum and plasma samples (human) (UniProt P15328); test: ECL sandwich capture 19D2.G9 / detection 26A9.C4; serum incubated overnight with 10 µg/mL MORAb-003
Chain of endogenous folate receptor alpha in human serum and plasma samples (human) (P15328 25-234 limits assumed, form in doubt): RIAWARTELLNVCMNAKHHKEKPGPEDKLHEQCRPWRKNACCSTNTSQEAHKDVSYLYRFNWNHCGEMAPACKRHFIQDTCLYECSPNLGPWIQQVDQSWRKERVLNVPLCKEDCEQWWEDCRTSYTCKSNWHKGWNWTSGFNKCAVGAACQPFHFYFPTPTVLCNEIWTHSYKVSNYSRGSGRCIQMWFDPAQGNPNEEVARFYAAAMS

[8] = biological target: endogenous folate receptor alpha in human serum and plasma samples (human) (UniProt P15328); test: ECL sandwich capture 19D4.B7 / detection 26A9.C4; serum incubated overnight with 10 µg/mL MORAb-003
[9] = biological target: endogenous folate receptor alpha in human serum and plasma samples (human) (UniProt P15328); test: ECL sandwich capture 6A2.G7 / detection 1C6.E12.G8; serum incubated overnight with 10 µg/mL MORAb-003
[10] = biological target: recombinant purified FRα (ECL assay calibrator) (human) (UniProt P15328); test: ECL sandwich capture 24H8.D3 / detection 6A2.G7; calibrator incubated overnight with 10 µg/mL MORAb-003
[11] = biological target: recombinant purified FRα (ECL assay calibrator) (human) (UniProt P15328); test: ECL sandwich capture 6A2.G7 / detection 19D2.G9; calibrator incubated overnight with 10 µg/mL MORAb-003
[12] = biological target: recombinant purified FRα (ECL assay calibrator) (human) (UniProt P15328); test: ECL sandwich capture 6A2.G7 / detection 24H8.D3; calibrator incubated overnight with 10 µg/mL MORAb-003
[13] = biological target: endogenous folate receptor alpha in human serum and plasma samples (human) (UniProt P15328); test: ECL sandwich capture 19D4.B7 / detection 1C6.E12.G8; serum incubated overnight with 10 µg/mL MORAb-003
[14] = biological target: recombinant purified FRα (ECL assay calibrator) (human) (UniProt P15328); test: ECL sandwich capture 19D2.G9 / detection 19D4.B7; calibrator incubated overnight with 10 µg/mL MORAb-003
[15] = biological target: recombinant purified FRα (ECL assay calibrator) (human) (UniProt P15328); test: ECL sandwich capture 19D4.B7 / detection 19D2.G9; calibrator incubated overnight with 10 µg/mL MORAb-003
[16] = biological target: recombinant purified FRα (ECL assay calibrator) (human) (UniProt P15328); test: ECL sandwich capture 19D4.B7 / detection 26A9.C4; calibrator incubated overnight with 10 µg/mL MORAb-003
[17] = biological target: recombinant purified FRα (ECL assay calibrator) (human) (UniProt P15328); test: ECL sandwich capture 19D4.B7 / detection 2F11.F8; calibrator incubated overnight with 10 µg/mL MORAb-003
[18] = biological target: recombinant purified FRα (ECL assay calibrator) (human) (UniProt P15328); test: ECL sandwich capture 19D4.B7 / detection 28H12.G9; calibrator incubated overnight with 10 µg/mL MORAb-003
[19] = biological target: recombinant purified FRα (ECL assay calibrator) (human) (UniProt P15328); test: ECL sandwich capture 1C6.E12.G8 / detection 19D4.B7; calibrator incubated overnight with 10 µg/mL MORAb-003
[20] = biological target: recombinant purified FRα (ECL assay calibrator) (human) (UniProt P15328); test: ECL sandwich capture 30G6.G6.G4.E9 / detection 2F11.F8; calibrator incubated overnight with 10 µg/mL MORAb-003
[21] = biological target: recombinant purified FRα (ECL assay calibrator) (human) (UniProt P15328); test: ECL sandwich capture 1D2.G8.G10 / detection 30G6.G6.G4.E9; calibrator incubated overnight with 10 µg/mL MORAb-003
[22] = biological target: recombinant purified FRα (ECL assay calibrator) (human) (UniProt P15328); test: ECL sandwich capture 30G6.G6.G4.E9 / detection 1D2.G8.G10; calibrator incubated overnight with 10 µg/mL MORAb-003
[23] = biological target: recombinant purified FRα (ECL assay calibrator) (human) (UniProt P15328); test: ECL sandwich capture 30G6.G6.G4.E9 / detection 1A8.G11.E7; calibrator incubated overnight with 10 µg/mL MORAb-003
[24] = biological target: endogenous folate receptor alpha in human serum and plasma samples (human) (UniProt P15328); test: ECL sandwich, positive control +CONT: capture 26B3.F2 (f1) / detection 19D4.B7; serum incubated overnight with 10 µg/mL MORAb-003

Chain of recombinant purified FRα (ECL assay calibrator) (human) (P15328 25-234 limits assumed): as the sequence (P15328 25-234 limits assumed, form in doubt) above

% of signal without MORAb-003 (MORAb-003 interference) [1]: 54%
% of signal without MORAb-003 (MORAb-003 interference) [2]: 70%
% of signal without MORAb-003 (MORAb-003 interference) [3]: 49%
% of signal without MORAb-003 (MORAb-003 interference) [4]: 58%
% of signal without MORAb-003 (MORAb-003 interference) [5]: 71%
% of signal without MORAb-003 (MORAb-003 interference) [6]: 75%
Drug suppression of serum [7]: -55.6%
Drug suppression of serum [8]: -3.77%
Drug suppression of serum [9]: -22.2%
Drug Suppression of Cal Signal at 500 pg/mL [10]: -15%
Drug Suppression of Cal Signal at 500 pg/mL [11]: -7%
Drug Suppression of Cal Signal at 500 pg/mL [12]: -9%
Drug suppression of serum [13]: -6.01%
Drug Suppression of Cal Signal at 500 pg/mL [14]: 2%
Drug Suppression of Cal Signal at 500 pg/mL [15]: -19%
Drug Suppression of Cal Signal at 500 pg/mL [16]: -14%
Drug Suppression of Cal Signal at 500 pg/mL [17]: -4%
Drug Suppression of Cal Signal at 500 pg/mL [18]: -21%
Drug Suppression of Cal Signal at 500 pg/mL [19]: -11%
Drug Suppression of Cal Signal at 500 pg/mL [20]: -1%
Drug Suppression of Cal Signal at 500 pg/mL [21]: -11%
Drug Suppression of Cal Signal at 500 pg/mL [22]: 8%
Drug Suppression of Cal Signal at 500 pg/mL [23]: 2%
Drug suppression of serum [24]: 12.1%
B1: farletuzumab (MORAb-003) (antibody, part only; not given: Constant regions, V domains shown, not shown: another chain or arm of the molecule)
VH: EVQLVESGGGVVQPGRSLRLSCSASGFTFSGYGLSWVRQAPGKGLEWVAMISSGGSYTYYADSVKGRFAISRDNAKNTLFLQMDSLRPEDTGVYFCARHGDDPAWFAYWGQGTPVTVSS
VL: DIQLTQSPSSLSASVGDRVTITCSVSSSISSNNLHWYQQKPGKAPKPWIYGTSNLASGVPSRFSGSGSGTDYTFTISSLQPEDIATYYCQQWSSYPYMYTFGQGTKVEIK
